Results from paper PMC6553764.

Target: FSFG6 (a segment of Nsp1FG that contains six repeats of the FxFG-type region) (S. cerevisiae)
Assay: SPR; XPR36 (BioRad), GLC chip; FG construct conjugated by its C-terminal cysteine to maleimide surface, quenched with beta-mercaptoethanol; analyte in TBT-PVP at 100 μl/min, association 15-120 s, dissociation 10 min, 25°C

fastest association rate estimated from the kinetic model fits: 3e+06 M⁻¹ s⁻¹
Substance: Kap95 (without the GST domain) (from UniProt Q06142 1-861) (natural protein)
